System: T1, CC(C)(COP(=O)(O)OP(=O)(O)OC[C@H]1O[C@@H](n2cnc3c(N)ncnc32)[C@H](O)[C@@H]1OP(=O)(O)O)[C@@H](O)C(=O)NCCC(=O)NCCSC(=O)CCCCCCCCCCCCCCCNc1ccc([N+](=O)[O-])c2nonc12
T1 construct: full length, HA tag kept (pEF-Bos-HA), HEK293 membrane fraction
Assay: auto-S-palmitoylation of HEK293 membranes, SDS-PAGE fluorescence normalised to tag Western blot
Format: cell-based, Mus musculus
Details: pH 7.4, 37 °C, labelled compound, covalent thioester at active-site Cys

mouse zDHHC17 (Mus musculus), sequence (chain, as listed by the source): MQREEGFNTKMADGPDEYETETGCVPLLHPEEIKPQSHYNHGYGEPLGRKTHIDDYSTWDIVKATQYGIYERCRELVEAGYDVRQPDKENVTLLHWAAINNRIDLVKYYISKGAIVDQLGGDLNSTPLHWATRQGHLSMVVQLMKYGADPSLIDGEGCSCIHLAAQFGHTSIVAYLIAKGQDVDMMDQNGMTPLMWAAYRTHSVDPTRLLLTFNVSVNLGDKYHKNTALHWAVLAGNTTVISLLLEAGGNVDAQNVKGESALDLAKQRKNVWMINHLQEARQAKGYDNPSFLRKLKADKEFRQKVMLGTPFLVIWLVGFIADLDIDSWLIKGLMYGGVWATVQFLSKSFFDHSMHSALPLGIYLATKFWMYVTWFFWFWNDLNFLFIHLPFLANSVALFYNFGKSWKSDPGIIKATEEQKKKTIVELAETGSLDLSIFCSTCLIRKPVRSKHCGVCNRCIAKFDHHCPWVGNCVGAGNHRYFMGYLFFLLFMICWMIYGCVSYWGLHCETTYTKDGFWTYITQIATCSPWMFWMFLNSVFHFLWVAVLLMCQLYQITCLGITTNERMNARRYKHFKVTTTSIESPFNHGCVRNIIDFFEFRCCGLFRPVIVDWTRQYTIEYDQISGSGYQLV

mouse zDHHC17 (Mus musculus)
Km: 6.20 ± 1.20 µM
